The numbers were not newly measured in publication PMC5179943, which cites them from elsewhere.

The target in the series is LRP2/Megalin (Homo sapiens) (UniProt P98164). The series is described as follows: solid phase binding assay.
UniProt P98164, sequence (P98164 26-4423): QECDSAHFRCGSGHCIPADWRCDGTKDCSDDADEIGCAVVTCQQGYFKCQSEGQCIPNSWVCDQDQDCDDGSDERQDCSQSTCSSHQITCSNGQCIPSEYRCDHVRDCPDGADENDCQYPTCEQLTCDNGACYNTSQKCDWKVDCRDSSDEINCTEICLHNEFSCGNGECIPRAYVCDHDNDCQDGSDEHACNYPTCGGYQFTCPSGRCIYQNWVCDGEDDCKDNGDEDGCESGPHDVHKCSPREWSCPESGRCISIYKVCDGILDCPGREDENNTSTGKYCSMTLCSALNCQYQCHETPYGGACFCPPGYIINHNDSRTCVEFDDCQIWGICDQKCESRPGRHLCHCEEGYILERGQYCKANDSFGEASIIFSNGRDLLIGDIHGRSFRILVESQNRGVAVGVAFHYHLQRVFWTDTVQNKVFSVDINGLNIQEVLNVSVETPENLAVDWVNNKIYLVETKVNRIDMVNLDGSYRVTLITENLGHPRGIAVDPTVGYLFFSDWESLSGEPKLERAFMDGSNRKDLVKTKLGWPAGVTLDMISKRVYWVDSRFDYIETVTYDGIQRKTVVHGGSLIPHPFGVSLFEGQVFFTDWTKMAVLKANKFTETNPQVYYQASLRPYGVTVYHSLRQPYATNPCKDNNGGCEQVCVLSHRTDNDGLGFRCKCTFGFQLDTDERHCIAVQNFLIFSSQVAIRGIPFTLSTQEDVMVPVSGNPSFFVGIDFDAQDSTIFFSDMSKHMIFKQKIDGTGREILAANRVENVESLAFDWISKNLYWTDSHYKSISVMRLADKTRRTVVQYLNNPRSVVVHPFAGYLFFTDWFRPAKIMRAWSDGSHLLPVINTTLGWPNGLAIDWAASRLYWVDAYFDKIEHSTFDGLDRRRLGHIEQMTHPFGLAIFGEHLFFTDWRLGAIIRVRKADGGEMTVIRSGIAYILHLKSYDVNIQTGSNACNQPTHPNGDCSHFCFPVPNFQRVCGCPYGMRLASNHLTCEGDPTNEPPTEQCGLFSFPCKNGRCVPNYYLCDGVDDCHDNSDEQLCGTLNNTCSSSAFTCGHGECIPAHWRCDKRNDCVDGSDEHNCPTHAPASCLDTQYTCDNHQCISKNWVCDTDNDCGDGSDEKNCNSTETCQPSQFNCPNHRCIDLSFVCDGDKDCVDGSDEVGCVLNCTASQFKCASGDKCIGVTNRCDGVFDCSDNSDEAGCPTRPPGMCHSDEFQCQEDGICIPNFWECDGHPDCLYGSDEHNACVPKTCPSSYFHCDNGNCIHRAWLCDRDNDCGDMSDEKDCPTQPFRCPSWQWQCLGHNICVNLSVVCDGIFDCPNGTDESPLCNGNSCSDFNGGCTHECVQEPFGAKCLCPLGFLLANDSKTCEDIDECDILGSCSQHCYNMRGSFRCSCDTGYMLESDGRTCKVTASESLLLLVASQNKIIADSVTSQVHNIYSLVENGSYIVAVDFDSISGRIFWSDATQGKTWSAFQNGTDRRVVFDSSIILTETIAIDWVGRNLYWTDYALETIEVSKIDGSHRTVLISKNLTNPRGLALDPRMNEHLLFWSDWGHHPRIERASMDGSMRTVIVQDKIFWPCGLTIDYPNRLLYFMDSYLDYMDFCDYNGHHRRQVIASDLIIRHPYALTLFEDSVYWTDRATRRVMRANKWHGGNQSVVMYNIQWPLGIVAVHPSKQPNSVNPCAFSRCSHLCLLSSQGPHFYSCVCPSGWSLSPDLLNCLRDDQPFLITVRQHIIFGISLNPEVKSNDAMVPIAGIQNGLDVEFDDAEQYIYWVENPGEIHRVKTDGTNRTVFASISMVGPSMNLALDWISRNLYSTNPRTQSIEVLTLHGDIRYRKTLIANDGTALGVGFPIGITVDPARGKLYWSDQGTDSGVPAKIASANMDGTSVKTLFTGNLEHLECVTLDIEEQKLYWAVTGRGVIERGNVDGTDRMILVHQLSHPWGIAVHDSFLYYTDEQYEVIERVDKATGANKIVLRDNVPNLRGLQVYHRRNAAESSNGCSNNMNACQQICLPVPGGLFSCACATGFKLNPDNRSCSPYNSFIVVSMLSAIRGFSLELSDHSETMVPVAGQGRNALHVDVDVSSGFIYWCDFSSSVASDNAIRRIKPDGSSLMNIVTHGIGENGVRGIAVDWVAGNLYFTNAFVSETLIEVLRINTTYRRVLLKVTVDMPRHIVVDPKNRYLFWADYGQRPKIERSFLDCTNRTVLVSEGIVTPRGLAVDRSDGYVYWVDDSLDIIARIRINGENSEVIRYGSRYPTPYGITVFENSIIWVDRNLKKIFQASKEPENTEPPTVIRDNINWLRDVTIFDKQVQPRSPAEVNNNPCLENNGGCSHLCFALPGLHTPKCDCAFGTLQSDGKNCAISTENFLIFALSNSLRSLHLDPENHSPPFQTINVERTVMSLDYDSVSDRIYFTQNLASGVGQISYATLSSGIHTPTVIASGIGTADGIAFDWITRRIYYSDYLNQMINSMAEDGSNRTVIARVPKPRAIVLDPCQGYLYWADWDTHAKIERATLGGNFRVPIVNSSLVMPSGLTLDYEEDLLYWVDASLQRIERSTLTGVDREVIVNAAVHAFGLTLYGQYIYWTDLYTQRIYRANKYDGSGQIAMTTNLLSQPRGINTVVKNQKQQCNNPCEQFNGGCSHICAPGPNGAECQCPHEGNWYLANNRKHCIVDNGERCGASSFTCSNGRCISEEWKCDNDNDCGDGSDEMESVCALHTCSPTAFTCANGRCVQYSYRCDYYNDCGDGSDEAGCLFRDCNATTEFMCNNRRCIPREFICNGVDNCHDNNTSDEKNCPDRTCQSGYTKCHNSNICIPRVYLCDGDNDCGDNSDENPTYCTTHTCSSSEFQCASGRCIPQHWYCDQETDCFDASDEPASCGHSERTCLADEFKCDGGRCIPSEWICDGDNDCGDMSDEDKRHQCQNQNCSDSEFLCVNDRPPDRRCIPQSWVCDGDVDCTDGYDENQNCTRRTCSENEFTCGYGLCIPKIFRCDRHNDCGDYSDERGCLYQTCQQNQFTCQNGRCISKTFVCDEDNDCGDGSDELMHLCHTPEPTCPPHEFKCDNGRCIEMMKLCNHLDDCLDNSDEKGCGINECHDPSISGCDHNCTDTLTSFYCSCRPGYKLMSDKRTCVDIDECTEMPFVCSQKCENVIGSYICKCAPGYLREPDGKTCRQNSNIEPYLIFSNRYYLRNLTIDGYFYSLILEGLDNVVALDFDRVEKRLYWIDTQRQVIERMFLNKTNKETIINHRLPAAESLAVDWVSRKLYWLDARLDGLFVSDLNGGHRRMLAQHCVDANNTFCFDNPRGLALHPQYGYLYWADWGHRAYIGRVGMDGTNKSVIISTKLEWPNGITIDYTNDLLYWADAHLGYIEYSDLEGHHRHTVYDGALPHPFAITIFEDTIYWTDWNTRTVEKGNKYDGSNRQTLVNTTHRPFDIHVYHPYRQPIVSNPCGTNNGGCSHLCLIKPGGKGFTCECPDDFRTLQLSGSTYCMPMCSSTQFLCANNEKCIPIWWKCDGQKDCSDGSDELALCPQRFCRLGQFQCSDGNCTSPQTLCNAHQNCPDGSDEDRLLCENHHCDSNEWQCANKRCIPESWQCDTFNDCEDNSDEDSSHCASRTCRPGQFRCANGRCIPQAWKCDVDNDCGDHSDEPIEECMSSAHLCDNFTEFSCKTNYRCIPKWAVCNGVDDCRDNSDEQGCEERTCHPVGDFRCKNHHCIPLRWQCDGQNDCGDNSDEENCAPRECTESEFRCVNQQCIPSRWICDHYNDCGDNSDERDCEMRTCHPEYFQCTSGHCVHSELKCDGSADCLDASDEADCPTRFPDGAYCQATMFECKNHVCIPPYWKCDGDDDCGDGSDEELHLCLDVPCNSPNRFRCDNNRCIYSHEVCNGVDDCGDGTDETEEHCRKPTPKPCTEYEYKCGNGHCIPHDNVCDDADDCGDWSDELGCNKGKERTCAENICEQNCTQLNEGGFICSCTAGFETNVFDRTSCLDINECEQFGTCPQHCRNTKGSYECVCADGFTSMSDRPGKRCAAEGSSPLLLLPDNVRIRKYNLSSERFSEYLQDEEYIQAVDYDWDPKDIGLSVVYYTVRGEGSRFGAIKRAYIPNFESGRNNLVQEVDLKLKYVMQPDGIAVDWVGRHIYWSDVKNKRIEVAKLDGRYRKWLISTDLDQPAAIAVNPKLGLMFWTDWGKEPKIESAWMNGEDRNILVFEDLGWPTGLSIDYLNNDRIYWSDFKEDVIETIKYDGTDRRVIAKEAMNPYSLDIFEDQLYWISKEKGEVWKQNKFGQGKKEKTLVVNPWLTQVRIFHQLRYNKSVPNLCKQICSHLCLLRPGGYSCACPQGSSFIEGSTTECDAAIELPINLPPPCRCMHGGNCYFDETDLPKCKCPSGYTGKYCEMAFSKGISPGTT

A word on the Kd: it is the concentration at which binding is half-saturated. Regarding Clusterin (from UniProt P10909), the Kd is 14.2 nM.
